From PMC4737184, “The activity of CouR, a MarR family transcriptional regulator, is modulated through a novel molecular mechanism” (Nucleic Acids Research, 2015) come the findings set out here.

Data set [1] addresses T1, CouR (Rhodococcus jostii, UniProt Q0S6D0).
T1 construct: gene RHA1_ro05125; full-length, homodimer; crystal model residues 4–146
T1 sequence (Q0S6D0 1-146): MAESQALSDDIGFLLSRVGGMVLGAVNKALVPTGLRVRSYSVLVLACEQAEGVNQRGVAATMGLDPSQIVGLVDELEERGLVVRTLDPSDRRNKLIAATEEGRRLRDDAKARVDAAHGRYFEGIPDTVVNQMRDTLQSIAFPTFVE
The data set is described as follows: ([…] Å) and ITC; EMSA in support. It counts as binding. In general terms: Mobility shift assays separate free from complexed probe on a gel.

Data set [2] has as its target T2, CouR (Rhodococcus jostii, UniProt Q0S6D0, R38A).
T2 construct: gene RHA1_ro05125; full-length
Briefly: ITC. It counts as binding.

Data set [3] deals with T3, CouR (Rhodococcus jostii, UniProt Q0S6D0, R36A).
T3 construct: gene RHA1_ro05125; full-length
The data set is described as follows: ITC. The data set is classed as binding.

For data set [4], the target named is T4, CouR (Rhodococcus jostii, UniProt Q0S6D0, R36A/R38A).
T4 construct: gene RHA1_ro05125; full-length
Briefly: ITC. The data set is classed as binding.

Data set [5] addresses T5, CouR (Rhodococcus jostii RHA1, UniProt Q0S6D0 1-146).
T5 sequence: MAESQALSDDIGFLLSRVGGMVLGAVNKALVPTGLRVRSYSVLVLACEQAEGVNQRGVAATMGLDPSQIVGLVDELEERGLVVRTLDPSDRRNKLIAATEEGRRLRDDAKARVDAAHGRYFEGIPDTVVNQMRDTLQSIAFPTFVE
Briefly: competition; 1 uM unlabelled vs 1 nM DIG-couRp_couNp, 200 nM CouR; EMSA: 20 mM HEPES pH 7.6, 10 mM (NH4)2SO4, 30 mM KCl, 1 mM DTT, 1 mM EDTA, 0.2% Tween 20, 100 ug/ml poly[d(I-C)], 1 nM probe, 25 C, 20 min. The settings on record: protein: recombinant; tags: His-tag removed by Factor Xa; extra N-terminal His residue remains; chain copies: 2; blunt.

Data set [6] concerns the target T5, CouR. Briefly: EMSA; 25-200 nM CouR; EMSA: 20 mM HEPES pH 7.6, 10 mM (NH4)2SO4, 30 mM KCl, 1 mM DTT, 1 mM EDTA, 0.2% Tween 20, 100 ug/ml poly[d(I-C)], 1 nM probe, 25 C, 20 min. Conditions: protein: recombinant; tags: His-tag removed by Factor Xa; extra N-terminal His residue remains; chain copies: 2; label: 3' DIG-11-ddUTP (probe); blunt.
In a further data set the target is T6, CouR R38A (Rhodococcus jostii RHA1, UniProt Q0S6D0 1-146, R38A).
T6 sequence: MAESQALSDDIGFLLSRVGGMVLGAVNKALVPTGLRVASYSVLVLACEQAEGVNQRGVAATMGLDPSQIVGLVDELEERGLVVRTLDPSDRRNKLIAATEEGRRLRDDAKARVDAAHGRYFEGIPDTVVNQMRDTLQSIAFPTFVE
The data set is described as follows: EMSA; 50 or 200 nM protein; EMSA: 20 mM HEPES pH 7.6, 10 mM (NH4)2SO4, 30 mM KCl, 1 mM DTT, 1 mM EDTA, 0.2% Tween 20, 100 ug/ml poly[d(I-C)], 1 nM probe, 25 C, 20 min. The settings on record: protein: recombinant; tags: His-tag removed by Factor Xa; extra N-terminal His residue remains; chain copies: 2; label: 3' DIG-11-ddUTP (probe); blunt.

The target of the next data set is T7, CouR R36A (Rhodococcus jostii RHA1, UniProt Q0S6D0 1-146, R36A).
T7 sequence: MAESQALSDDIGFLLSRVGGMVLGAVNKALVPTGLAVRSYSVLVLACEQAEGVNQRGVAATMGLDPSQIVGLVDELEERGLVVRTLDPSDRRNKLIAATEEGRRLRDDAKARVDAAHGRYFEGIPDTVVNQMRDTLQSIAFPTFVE
Described as above. Conditions: protein: recombinant; tags: His-tag removed by Factor Xa; extra N-terminal His residue remains; chain copies: 2; label: 3' DIG-11-ddUTP (probe); blunt.

The target in a further data set is T8, CouR R36A/R38A (Rhodococcus jostii RHA1, UniProt Q0S6D0 1-146, R36A;R38A).
T8 sequence: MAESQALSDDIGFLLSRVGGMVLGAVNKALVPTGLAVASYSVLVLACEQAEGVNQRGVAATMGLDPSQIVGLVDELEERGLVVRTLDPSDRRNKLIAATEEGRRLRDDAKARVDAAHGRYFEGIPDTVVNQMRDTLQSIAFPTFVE
The data set is described as above. The settings on record: protein: recombinant; tags: His-tag removed by Factor Xa; extra N-terminal His residue remains; chain copies: 2; label: 3' DIG-11-ddUTP (probe); blunt.

By Kd is commonly meant the concentration at which binding is half-saturated. Higher therefore signals lower affinity. For `CC(C)(COP(=O)(O)OP(=O)(O)OC[C@H]1O[C@@H](n2cnc3c(N)ncnc32)[C@H](O)[C@@H]1OP(=O)(O)O)[C@@H](O)C(=O)NCCC(=O)NCCSC(=O)/C=C/c1ccc(O)cc1` [p-coumaroyl–CoA], the Kd on CouR [1] was 11 µM; at CouR [2] it was 25 µM; at CouR [3] it was 28 µM; on CouR [4], 89 µM.

B1: couTp (dsDNA)
DNA 1: CATTAATCATTGAACTTGTCAATGGAAGAGA
DNA 2: TCTCTTCCATTGACAAGTTCAATGATTAATG
B1: the binding result with CouR [5] is listed as “binds”.

B2: couRp_couNp (dsDNA)
DNA 1: CATTGATGATTGAGAATGTCAATGATTAAGG
DNA 2: CCTTAATCATTGACATTCTCAATCATCAATG
B2: the binding result is listed as “binds” with CouR [6], “no binding” in the data set with CouR R38A, “no binding” in the data set with CouR R36A and “no binding” in the data set with CouR R36A/R38A.

B3: couRp_couNp_m (dsDNA)
DNA 1: CATTGATGTAACTGAATGAGTTAGATTAAGG
DNA 2: CCTTAATCTAACTCATTCAGTTACATCAATG
As to B3, the binding result in the data set with CouR [6] is “no binding”.

B4: couHp (dsDNA)
DNA 1: TATCAATCATTGATAATGTCAATGATTGACT
DNA 2: AGTCAATCATTGACATTATCAATGATTGATA
Turning to B4, the binding result in the data set with CouR [5] was “binds”.
